Assay results reported in patent US20160177307.

Tests used:
Assay in all cases: filter
[1] = system: T1, VEGF-121 (Homo sapiens), P15692-9
T1 sequence: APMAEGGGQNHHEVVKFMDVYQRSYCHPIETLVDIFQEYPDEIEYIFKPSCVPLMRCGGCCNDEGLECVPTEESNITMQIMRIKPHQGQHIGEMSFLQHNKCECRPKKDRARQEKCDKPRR

[2] = system: T2, VEGF-164 (Rattus norvegicus), P16612-2; details: P=Nap-dU
T2 sequence: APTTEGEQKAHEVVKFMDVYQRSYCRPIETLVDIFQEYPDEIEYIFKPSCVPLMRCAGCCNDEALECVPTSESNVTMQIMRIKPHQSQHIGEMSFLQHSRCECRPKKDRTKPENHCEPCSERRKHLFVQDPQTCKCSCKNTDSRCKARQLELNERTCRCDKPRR

[3] = system: T3, VEGF-165 (Homo sapiens), P15692-4
T3 sequence: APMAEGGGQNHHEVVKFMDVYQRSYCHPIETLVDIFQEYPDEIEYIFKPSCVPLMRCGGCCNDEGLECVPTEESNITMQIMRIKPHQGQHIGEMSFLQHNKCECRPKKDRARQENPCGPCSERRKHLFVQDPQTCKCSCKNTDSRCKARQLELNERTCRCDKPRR

[4] = molecular target: PDGF-BB (platelet-derived growth factor BB) (Homo sapiens) (UniProt P01127); details: 2'-OMe
Sequence of PDGF-BB (platelet-derived growth factor BB) (Homo sapiens) (P01127 82-190): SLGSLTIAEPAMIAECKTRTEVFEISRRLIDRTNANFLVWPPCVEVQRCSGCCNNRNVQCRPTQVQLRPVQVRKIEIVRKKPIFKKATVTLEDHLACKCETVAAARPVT

[5] = Bn-dU, MBn-dU, Nap-dU, 2'-OMe, C3, 6 Heg between parts
[6] = Nap-dU, Bn-dU, MBn-dU, 2'-OMe, C3, 2 Heg between parts
[7] = Bn-dU, MBn-dU, Nap-dU, 2'-OMe, C3, 2 Heg between parts

Q: Which results are given for “TCAATCAGCCGTTCAAGTGCTTGTAGGATTTAAATGG [4867-31_23]”?
A: Kd ([1]; NapdU at P): 1.3 nM; Kd [2]: 0.66 nM; Kd ([3]; NapdU at P): 0.3 nM

Q: For “TTACGTTACCGCGTTTATAGCGCCGTTCAAGTGCTTGTAGGATTTAAATGG [4149-8_417]”, which Kd [1, 5] is on record?
A: 0.043 nM

Q: What about the Kd ([4]; Bn-dU, MBn-dU, Nap-dU, C3, 6 Heg between parts) of the same sequence?
A: 0.011 nM

Q: And the Kd [3, 5]?
A: 0.065 nM

Q: How did the Kd ([1]; P=Nap-dU) turn out when “ATCAGCCGTTCAAGTGCTTGTAGGATTTAAATGGA [4867-31_40]” was run?
A: 0.7 nM

Q: And the Kd [2]?
A: 0.1 nM

Q: And the Kd ([3]; P=Nap-dU)?
A: 0.14 nM

Q: What does the source list for “CGACAGCATGTATGCACATCTCCGTTCAAGTGCTTGTAGGATTTAAATGG [5169-4_104]”?
A: Kd ([1]; PDGF-1Heg-VEGF, NapdU, 2'-OMe): 0.28 nM; Kd ([4]; PDGF-1Heg-VEGF, NapdU): 0.0046 nM

Q: “CGACAGCATGTATGCACATCTCCGTTCAAGTGCTTGTAGGATTTAAATGG [5169-4_99]” was tested. Which Kd ([1]; PDGF-6Heg-VEGF, NapdU, 2'-OMe) did it give?
A: 0.12 nM

Q: And the Kd ([4]; PDGF-6Heg-VEGF, NapdU)?
A: 0.0021 nM

Q: Which results are given for “CGACAGCATGTATGCACATCTCCGTTCAAGTGCTTGTAGGATTTAAATGG [5169-4_100]”?
A: Kd ([1]; PDGF-5Heg-VEGF, NapdU, 2'-OMe): 0.056 nM; Kd ([4]; PDGF-5Heg-VEGF, NapdU): 0.0015 nM

Q: How did the Kd [2] turn out when “CAGCCGTTCAAGTGCTTGTAGGATTTAA [4867-31_48]” was run?
A: 142 nM

Q: “CCGTTCAAGTGCTTGTAGGATTTAAATGGCGACAGCATGTATGCACATCT [5169-4_97]” was tested. Which Kd ([1]; VEGF-2Heg-PDGF, NapdU, 2'-OMe) did it give?
A: 0.1 nM

Q: What about the Kd ([4]; VEGF-2Heg-PDGF, NapdU) of the same sequence?
A: 0.0037 nM

Q: With “CCGTTCAAGTGCTTGTAGGATTTAAATGG [4867-31_154]” as the sequence, how does the Kd ([1]; NapdU at P, 2'-OMe 4) read?
A: 5.9 nM

Q: Which Kd [1, 6] does the source give for “CCGTTCAAGTGCTTGTAGGATTTAAATGGTTACGTTACCGCGTTTATAGCG [4149-8_409]” here?
A: 0.026 nM

Q: What about the Kd ([4]; Nap-dU, Bn-dU, MBn-dU, C3, 2 Heg between parts) of the same sequence?
A: 0.6 nM

Q: What about the Kd [3, 6] of the same sequence?
A: 0.029 nM

Q: Which Kd ([1]; NapdU at P, 2'-OMe 21) does the source give for “CCGTTCAAGTGCTTGTAGGATTTAAATGG [4867-31_160]” here?
A: 1.5 nM

Q: What does the source list for “TTACGTTACCGCGTTTATAGCGCCGTTCAAGTGCTTGTAGGATTTAAATGG [4149-8_414]”?
A: Kd [1, 7]: 0.023 nM; Kd ([4]; Bn-dU, MBn-dU, Nap-dU, C3, 2 Heg between parts): 0.01 nM; Kd [3, 7]: 0.051 nM

Q: “CCGTTCAAGTGCTTGTAGGATTTAAATGG [4867-31_477]” was tested. Which Kd ([1]; as 4867-31_192, 2'-OMe 1, PS 25,26) did it give?
A: 0.024 nM

Q: “CCCTCCATCAGCCGTTCAAGTGCTTGTAGGATTTAAATGGAATTGGAGA [4867-15_71]” was tested. Which Kd ([1]; P=Nap-dU, C3 spacer at 48) did it give?
A: 0.24 nM

Q: With “AGCCGTTCAAGTGCTTGTAGGATTTAAATGGA [4867-31_75]” as the sequence, how does the Kd ([1]; P=Nap-dU, 2'-OMe G11) read?
A: 0.15 nM

Q: Which Kd ([1]; as 4867-31_192 plus 2'-OMe C1 and PS 3' of A24,A25,A26, 3'-idT) does the source give for “CCGTTCAAGTGCTTGTAGGATTTAAATGG [4867-31_481]” here?
A: 0.026 nM

Q: With “CCGTTCAAGTGCTTGTAGGATTTAAATGG [4867-31_411]” as the sequence, how does the Kd ([1]; as 4867-31_192 plus PS 3' of G3, 3'-idT, 29259-fold loss from PS at G3) read?
A: 320 nM

Q: How did the Kd ([1]; P=Nap-dU) turn out when “CCGTTAAAGTGCTTGTAGGATTTAAATGGA [4867-31_145]” was run?
A: 3.08 nM

Q: With “AGCCGTTCAAGTGCTTTAGGATTTAAATGGA [4867-31_98]” as the sequence, how does the Kd ([1]; C3 spacer at 17, all P are NapdU, C3 at G17) read?
A: 0.1 nM

Q: Which Kd ([1]; as 4867-31_192, PS 3' of 1, 3' inverted dT) does the source give for “CCGTTCAAGTGCTTGTAGGATTTAAATGG [4867-31_409]” here?
A: 0.011 nM

Q: How did the Kd ([1]; P=Nap-dU, C3 spacer at 27) turn out when “CCCTCCATCAGCCGTTCAAGTGCTTGAGGATTTAAATGGAATTGGAGGA [4867-15_50]” was run?
A: 3.5 nM

Q: For “CCGTTCAAGTGCTTGTAGGATTTAAATGGCGACAGCATGTATGCACATCT [5169-4_96]”, which Kd ([1]; VEGF-3Heg-PDGF, NapdU, 2'-OMe) is on record?
A: 0.076 nM

Q: What about the Kd ([4]; VEGF-3Heg-PDGF, NapdU) of the same sequence?
A: 0.0045 nM

Q: Which Kd ([1]; as 4867-31_192, PS 3' of 27, 3' inverted dT) does the source give for “CCGTTCAAGTGCTTGTAGGATTTAAATGG [4867-31_429]” here?
A: 0.012 nM

Q: For “CCCTCCATCAGCCGTTCAAGTGCTTGTAGGATTTAAATGGAATTGGAGG [4867-15_73]”, which Kd ([1]; P=Nap-dU, C3 spacer at 50) is on record?
A: 0.17 nM

Q: With “CCCTCCATCAGCCGTTCAAGTGCTTGTAGGATTTAAATGGAATTGGGGA [4867-15_70]” as the sequence, how does the Kd ([1]; P=Nap-dU, C3 spacer at 47) read?
A: 0.68 nM

Q: How did the Kd ([1]; P=Nap-dU, C3 spacer at 49) turn out when “CCCTCCATCAGCCGTTCAAGTGCTTGTAGGATTTAAATGGAATTGGAGA [4867-15_72]” was run?
A: 0.19 nM

Q: “CCGTTCAAGTGCTTTAGATTTAAATGG [4867-31_186]” was tested. Which Kd ([1]; NapdU at P, C3 spacer 15,18, 2'-OMe 1,6,9,12,17,25,28,29) did it give?
A: 1.6 nM

Q: Which Kd ([1]; as 4867-31_192, PS 3' of 21, 3' inverted dT) does the source give for “CCGTTCAAGTGCTTGTAGGATTTAAATGG [4867-31_424]” here?
A: 0.011 nM
